Test results taken from patent US20020090682A1 (AMRAD OPERATIONS, published 2002).

Experiments:
[1] = biological target: T1, murine NR4 (IL-13 receptor α-chain, IL-13Rα) expressed in COS cells (murine, UniProt O09030 27-424); experiment: Scatchard analysis of 125I-IL-13 binding to COS cells expressing NR4
T1 construct: also called IL-13Rα(NR4)
T1 sequence: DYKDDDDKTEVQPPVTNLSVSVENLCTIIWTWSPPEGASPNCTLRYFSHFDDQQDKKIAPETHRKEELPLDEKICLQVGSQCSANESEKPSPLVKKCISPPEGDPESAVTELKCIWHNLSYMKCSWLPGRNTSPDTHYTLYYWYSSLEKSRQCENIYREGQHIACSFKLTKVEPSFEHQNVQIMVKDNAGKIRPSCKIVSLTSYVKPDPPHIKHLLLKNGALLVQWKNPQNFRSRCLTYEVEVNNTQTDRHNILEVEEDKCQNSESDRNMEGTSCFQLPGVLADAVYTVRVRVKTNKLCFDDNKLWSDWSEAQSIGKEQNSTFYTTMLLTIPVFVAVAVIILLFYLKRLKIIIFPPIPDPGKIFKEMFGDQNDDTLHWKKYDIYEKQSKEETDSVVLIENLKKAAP

[2] = biological target: T2, IL-13Rα(NR4) expressed in CTLL cells (high affinity IL-13 receptor; cells also carry the IL-4 receptor) (murine, UniProt P16382 26-810); experiment: Scatchard analysis of 125I-IL-13 binding to CTLL cells expressing the IL-13Rα(NR4)
T2 sequence (P16382 26-810): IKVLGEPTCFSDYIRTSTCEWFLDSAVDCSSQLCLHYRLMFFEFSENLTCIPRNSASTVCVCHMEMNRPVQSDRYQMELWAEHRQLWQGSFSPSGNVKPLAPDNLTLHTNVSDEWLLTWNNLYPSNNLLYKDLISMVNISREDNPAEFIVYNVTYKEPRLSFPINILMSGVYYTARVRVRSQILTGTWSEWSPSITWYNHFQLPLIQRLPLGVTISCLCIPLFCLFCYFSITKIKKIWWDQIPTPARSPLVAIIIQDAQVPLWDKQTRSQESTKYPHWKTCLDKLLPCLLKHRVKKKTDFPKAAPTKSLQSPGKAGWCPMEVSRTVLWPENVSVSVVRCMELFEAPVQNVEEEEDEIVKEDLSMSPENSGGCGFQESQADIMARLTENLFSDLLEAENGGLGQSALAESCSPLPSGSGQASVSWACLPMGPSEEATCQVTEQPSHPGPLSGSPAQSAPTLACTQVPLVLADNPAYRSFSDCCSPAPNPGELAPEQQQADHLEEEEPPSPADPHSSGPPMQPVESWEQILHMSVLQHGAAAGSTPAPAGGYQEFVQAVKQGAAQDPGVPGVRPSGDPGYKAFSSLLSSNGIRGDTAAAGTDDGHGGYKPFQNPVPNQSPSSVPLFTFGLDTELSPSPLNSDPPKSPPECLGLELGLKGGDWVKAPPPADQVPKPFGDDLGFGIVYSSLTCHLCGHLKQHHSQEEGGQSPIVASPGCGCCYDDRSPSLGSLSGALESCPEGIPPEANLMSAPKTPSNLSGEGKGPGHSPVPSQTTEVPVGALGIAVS
Method: Data have been normalised to 1×10⁴ COS cells and 1×10⁶ CTLL cells and binding was carried out on ice for 2 to 4 hours.
A likely candidate based on previous studies is the IL-4Rα.

[3] = biological target: T2, IL-13Rα(NR4) expressed in CTLL cells …; experiment: unlabelled IL-13 competing with 125I-IL-13 for binding to CTLL cells expressing the IL-13Rα(NR4)

B1: IL-13 (obtained commercially, R & D Systems) (ligand)
chain: APGPVPRSVSLPLTLKELIEELSNITQDQTPLCNGSMVWSVDLAAGGFCVALDSLTNISNCNAIYRTQRILHGLCNRKAPTTVSSLPDTKIEVAHFITKLLSYTKQLFRHGPF
modifications: Radioiodinated (125I, iodine monochloride method) in the labelled form.
notes: the receptor and the cells are murine; also called unlabelled IL-13
B1 gave a Kd [1] of 2 to 10 nM, a Kd [2] of roughly 0.075 nM and an IC50 [3] of roughly 0.3 nM.
